US20160355553A1 (Janssen / Centocor, published 2016)

Key:
[1] = target: H3 Mini-HA cluster 1+2+3+4+5+6+7-N405D (influenza A virus H3N2, UniProt O11283 17-566); test: FACS, HEK293F cells
[2] = target: H3 Mini-HA cluster 1+2+3+4+5+6+7-N405A (influenza A virus H3N2, UniProt O11283 17-566); test: FACS, HEK293F cells
[3] = target: H3 Mini-HA cluster 1+2+3+4+5+6+7-N405E (influenza A virus H3N2, UniProt O11283 17-566); test: FACS, HEK293F cells
[4] = target: H3 Mini-HA cluster 1+5 N405A (influenza A virus H3N2, UniProt O11283 17-566); test: FACS on HEK293F [D00010 FIG. 8B]
[5] = target: H3 Mini-HA cluster 1+5 N405E (influenza A virus H3N2, UniProt O11283 17-566); test: FACS on HEK293F [D00010 FIG. 8B]
[6] = target: H3 Mini-HA cluster 1+5 N405D (influenza A virus H3N2, UniProt O11283 17-566); test: FACS on HEK293F [D00010 FIG. 8B]
[7] = target: miniHA cluster1+4 (A/Brisbane/59/2007) (influenza A virus H1N1, UniProt A8C8J4 18-565); test: FACS on HEK293F
[8] = target: full-length HA of H1 A/Brisbane/59/2007 with cleavage site mutation R343Q (influenza A virus H1N1, UniProt B4URD6 18-565); test: FACS, HEK293F cells

Binder | binding result [1] | binding result [2] | binding result [3] | binding result [4] | binding result [5] | binding result [6] | binding result [7] | binding result [8]
CR9114 (antibody, V domains shown) VH: QVQLVQSGAEVKKPGSSVKVSCKSSGGTSNNYAISWVRQAPGQGLDWMGGISPIFGSTAYAQKFQGRVTISADIFSNTAYMELNSLTSEDTAVYFCARHGNYYYYSGMDVWGQGTTVTVSS VL: SYVLTQPPAVSGTPGQRVTISCSGSDSNIGRRSVNWYQQFPGTAPKLLIYSNDQRPSVVPDRFSGSKSGTSASLAISGLQSEDEAEYYCAAWDDSLKGAVFGGGTQLTVL | no binding (tested: 5 microgram/ml) | no binding (tested: 5 microgram/ml) | no binding (tested: 5 microgram/ml) | no binding (tested: 5 ug/ml) | no binding (tested: 5 ug/ml) | no binding (tested: 5 ug/ml) |  | 
CR6261 (antibody, V domains shown) VH: EVQLVESGAEVKKPGSSVKVSCKASGGPFRSYAISWVRQAPGQGPEWMGGIIPIFGTTKYAPKFQGRVTITADDFAGTVYMELSSLRSEDTAMYYCAKHMGYQVRETMDVWGKGTTVTVSS VL: QSVLTQPPSVSAAPGQKVTISCSGSSSNIGNDYVSWYQQLPGTAPKLLIYDNNKRPSGIPDRFSGSKSGTSATLGITGLQTGDEANYYCATWDRRPTAYVVFGGGTKLTVLG |  |  |  | no binding (tested: 5 ug/ml) | no binding (tested: 5 ug/ml) | no binding (tested: 5 ug/ml) |  | 
CR8057 (antibody, V domains shown) VH: EVQLVESGGGLVQPGGSLRLSCAASGFTDSVIFMSWVRQAPGKGLECVSIIYIDDSTYYADSVKGRFTISRHNSMGTVFLEMNSLRPDDTAVYYCATESGDFGDQTGPYHYYAMDV VL: QSALTQPASVSGSPGQSITISCTGSSGDIGGYNAVSWYQHHPGKAPKLMIYEVTSRPSGVSDRFSASRSGDTASLTVSGLQAEDEAHYYCCSFADSNILI |  |  |  | no binding (tested: 5 ug/ml) | no binding (tested: 5 ug/ml) | no binding (tested: 5 ug/ml) | no binding (tested: 5 ug/ml) | no binding (tested: 5 microgram/ml)
